Laboratory results as given in article PMC6021111, “Murine leukemia virus p12 tethers the capsid-containing pre-integration complex to chromatin by binding directly to host nucleosomes in mitosis” (PLoS Pathogens, 2018).

What was measured:
[1] = test system: cellular proteins of mitotic 293T cells; experiment: SILAC-MS of GST-p12_WT relative to GST-p12_mut14; format: binding; conditions: log2(H/M) >2.58 SDs from mean in both replicates
Protocol: (§1) For SILAC-MS experiments, 293T cells were grown is media containing light (R0K0, ^12C-Arginine and ^12C-Lysine), medium (R6K4, ^13C-Arginine and Lysine-4,4,5,5-d4) or heavy (R10K8, ^13C+^15N-Arginine and ^13C+^15N-Lysine) versions of L-Arginine and L-Lysine amino acids (Pierce) for a minimum of 6 doublings before transient expression of GST-p12 proteins. After performing the glutathione-sepharose pull-down assays equivalent volumes of the beads eluates were pooled and submitted to the Bristol University Proteomics Facility for RP nano-LC-MS/MS analysis. This analysis was performed on an LTQ-Orbitrap Velos mass spectrometer in line with a Dionex Ultimate 3000 nanoHPLC system as described in [53].
Supplementary file ppat.1007117.s002.tif: S2 Fig SILAC results showing no significant difference in protein complexes of Mo-MLV GST-p12_mut14 compared to GST-p12_WT. (Links to Fig 4). GST, Mo-MLV GST-p12_mut14 or GST-p12_WT were transiently-expressed in 293T cells cultured in light (L), medium (M) or heavy (H) SILAC media, respectively. GST-protein complexes were precipitated from mitotic cell lysates and analysed by LC-MS/MS. (A) To identify proteins enriched in the GST-p12_WT (H) sample relative to the GST-p12_mut14 (M) sample, log2(H/M) silac ratios of each set of MS hits (FDR <5%) from replicates (R1 and R2) were plotted as a frequency distribution. […]

GST-p12_WT = experiment: SILAC-MS of proteins enriched with GST-p12_WT relative to GST; format: binding, Mo-MLV; conditions: log2(H/L) >2.58 SDs from mean
Text: To test whether GST-p12 was acting like the p12 region of Gag, we used a global proteomic approach based on stable isotope labelling by amino acids in cell culture (SILAC)-mass spectrometry (MS) to look for host proteins that interact with GST-p12 [35, 36]. A schematic diagram of the workflow is illustrated in Fig 4A. Briefly, GST, GST-p12_mut14 and GST-p12_WT were transiently-expressed in 293T cells cultured in light (R0/K0), medium (R6/K4) and heavy (R10/K8) SILAC media, respectively. Next, lysates of nocodazole treated transfected cells were prepared, normalised and used for parallel pull-down assays with glutathione-sepharose beads. The eluates from the beads were then pooled in a 1:1:1 ratio and subjected to LC-MS/MS analysis. The experiment was performed using biological replicates to test reproducibility of the mass-spec hits. The pull-down assays for this experiment were performed using mitotic cell lysates to facilitate identification of any potential chromatin interactions that were previously missed.
After removal of obvious contaminants (e.g. keratin) and non-quantified hits, 948 and 879 proteins were identified in replicates 1 and 2 (R1 and R2) of the experiment respectively (the false discovery rate (FDR) was set at 5%). To select proteins enriched in the heavy-labelled (H) GST-p12_WT sample relative to the light-labelled (L) GST sample, we compared the log2(H/L) silac ratios of the mass-spectrometry hits. When plotted as a frequency distribution, the log2(H/L) ratios of each replicate fitted well to a normal distribution curve (R^2 ≥ 0.98), allowing the mean and standard deviation to be accurately estimated (Fig 4B). In this experiment, contaminants/non-specifically bound cellular proteins were assumed to cluster around the mean of the distribution. […] Twenty one such proteins were identified in R1 and 22 identified in R2 (Fig 4B Venn diagram). […] These proteins were then ranked based on normalised abundance in the group. In mass-spectrometry analysis, larger proteins are in general assigned higher scores. Therefore, to control for protein size, we divided the number of peptide spectral matches identified for each protein with its length and then normalised the values across the group (Fig 4C and 4D). When ranked this way, the clathrin heavy chain (CLTC), clathrin interactor 1 (CLINT1) and NEDD4-like E3 ubiquitin ligase (WWP2) were identified as the top three hits. […] The function of clathrin in MLV infection is unclear. […] Thus, clathrin binding may be relevant to the early stages of MLV replication and should be investigated further.
as §1
Supplementary file ppat.1007117.s005.xlsx: S1 Table Results from the first SILAC-MS analysis. GST, Mo-MLV GST-p12_mut14 or GST-p12_WT were transiently-expressed in 293T cells cultured in light (R0/K0), medium (R6/K4) and heavy (R10/K8) SILAC media, respectively. Mitotic cell lysates were subsequently used for glutathione-sepharose bead pull-down assays. Bead eluates were pooled in a 1:1:1 ratio and then analysed by LC-MS/MS. […] (XLSX) Click here for additional data file.

[2] = Biochemical fractionation of 293T cells expressing GST-p12; format: cell-based; conditions: cycling cells, ~40 h expression, immunoblot of S2, S3, P3
Protocol: GST-p12 proteins were expressed in 293T cells from pCAGGS/GST-derived plasmids by transient transfection using Turbofect (Thermo Fisher Scientific). Cell media was changed 24 h after transfection, and cells were incubated overnight at 37°C, before being harvested, counted, pelleted (500 g, 5 min) and snap frozen in dry ice/ethanol. Biochemical fractionation of cells was performed essentially as described in [14]. Briefly, cell pellets thawed on ice were resuspended at 2.5× 10^7 cells/ml in buffer 1 (10 mm HEPES pH 7.9, 10 mm KCl, 1.5 mm MgCl2, 10% glycerol, 0.34 m sucrose, 1 mm DTT and protease inhibitors) and then supplemented with 0.1% Triton-X-100. Cells were incubated on ice for 5 min and nuclei (P1) were collected by centrifugation at 1300 g, 5 min, 4°C. The supernatant (S1) was clarified by further centrifugation (5 min, 20 000 × g, 4°C) to collect the cytosolic supernatant fraction (S2). The P1 nuclei were washed once with buffer 1 and then lysed for 30 min in buffer 2 (3 mM EDTA, 0.2 mM EGTA and 1 mM DTT, protease inhibitors). The chromatin (P3) and soluble nuclear (S3) fractions were separated by centrifugation (5 min, 1700 g, 4°C). The S2, S3 and P3 fractions were analysed by immunoblotting.

B1: GST-p12_WT: N-terminally GST-tagged Mo-MLV p12 (protein)
chain: PALTPSLGAKPKPQVLSDSGGPLIDLLTEDPPPYRDPRPPPSDRDGNGGEATPAGEAPDPSPMASRLRGRREPPVADSTTSQAF
modifications: left off: GST, N-terminal, kept
notes: N-terminally GST-tagged Mo-MLV p12
[1]
  proteins significantly enriched vs GST-p12_mut14: no proteins that passed the criteria for significant enrichment
GST-p12_WT; R1 and R2
  number of proteins significantly enriched vs GST in both replicates: seven
GST-p12_WT; replicate 1
  number of proteins significantly enriched vs GST: Twenty one
GST-p12_WT; replicate 2
  number of proteins significantly enriched vs GST: 22 proteins
[2]
  sub-cellular distribution by fractionation: mainly cytoplasmic
